Test results reported in PMC3017119, “Structural Basis for the Recognition of Cellular mRNA Export Factor REF by Herpes Viral Proteins HSV-1 ICP27 and HVS ORF57” (PLoS Pathogens, 2011).

B1: unnamed (parent)
chain 1: MATDIDMLIDLGLDLSDSDLDEDPPEPAESRRDDLESDSSGECSSSDEDMEDPHGEDGPEPILDAARPAVRPSRPEDPGVPSTQTPRPTERQGPNDPQPAPHSVWSRLGARRPSCSPEQHGGKVARLQPPPTKAQPARGGRRGRRRGRGRGGPGAADGLSDPRRRAPRTNRNPGGPRPGAGWTDGPGAPHGEAWRGSEQPDPPGGQRTRGVRQAPPPLMTLAIAPPPADPRAPAPERKAPAADTIDATTRLVLRSISERAAVDRISESFGRSAQVMHDPFGGQPFPAANSPWAPVLAGQGGPFDAETRRVSWETLVAHGPSLYRTFAGNPRAASTAKAMRDCVLRQENFIEALASADETLAWCKMCIHHNLPLRPQDPIIGTTAAVLDNLATRLRPFLQCYLKARGLCGLDELCSRRRLADIKDIASFVFVILARLANRVERGVAEIDYATLGVGVGEKMHFYLPGACMAGLIEILDTHRQECSSRVCELTASHIVAPPYVHGKYFYCNSLF
chain 2: not shown

Variants of: B1
Experiment: co-immunoprecipitation with densitometry of Western blot
Conditions: 293T cells transfected with GFP-tagged ICP27 and its mutants, IP with polyclonal GFP-specific antibody and Protein A agarose, 3 independent experiments, read off a plot, scale: relative binding normalised against GFP control
Work on chain 1 R107A L108A yielded a response of 0.37. chain 1 W105A R107A L108A gave a response of 0.3. chain 1 W105A gave a response of 0.32.
